Assay results: article PMC10143822, “Structural Adaptation of the Single-Stranded DNA-Binding Protein C-Terminal to DNA Metabolizing Partners Guides Inhibitor Design” (Pharmaceutics, 2023)
Where a SMILES comes first, the peptide text is derived from it. Primed or numbered codes have the meaning given here. Where no end group is shown, it is not given here. [ ]: non-standard residue; d: D form. 5,6‑carboxyfluorescein = 5,6-carboxyfluorescein; Phe(4-CF3) = N[C@@H](Cc1ccc(C(F)(F)F)cc1)C(=O)O; Phe(3-Cl) = N[C@@H](Cc1cccc(Cl)c1)C(=O)O; Phe(4-Cl) = N[C@@H](Cc1ccc(Cl)cc1)C(=O)O; Pip = O=C(O)[C@@H]1CCCCN1; β3hD = NC(CC(=O)O)CC(=O)O; Nle = CCCC[C@H](N)C(=O)O; Pip′ = not defined here

Legend:
[1] = test system: ExoI; details: 1 µM biotin-tagged peptide on streptavidin beads, lysate with 1 µM recombinant ExoI, 30 min; on-bead tryptic digestion, nanoLC-MS/MS intensities
Protocol: ExoI and RecO expressing cells were grown and lysed, as mentioned above. A fraction of cell lysate was used to quantify the recombinant protein content. BL21 (DE)3 pLysS cells were grown on LB media until OD600 = 2.0 and lysed using sonication. Recombinant protein containing lysates were diluted with BL21 (DE)3 pLysS lysate, setting the final concentration of the recombinant protein to 1 µM. SSB peptides (wtSSB, E1-sSSB, R2-sSSB) were immobilized onto Streptavidin DynaBeads using an N-terminal biotin tag. Then, 1 µM immobilized peptides were incubated with cell lysate for 30 min. Beads were washed with trypsin digestion buffer (20 mM TRIS pH = 8.0, 100 mM NaCl, 2 mM CaCl2). Beads were processed with an on-pellet digestion protocol. NanoLC-MS/MS analysis was carried out on a Waters ACQUITY UPLC M-Class LC system (Waters, Milford, MA, USA) coupled with a Q Exactive^TM Plus Hybrid Quadrupole-Orbitrap^TM mass spectrometer (Thermo Fisher Scientific, Waltham, MA, USA). The instrument was operated in the data-dependent mode. […]
To test the affinity improvement for E1-sSSB-Ct and R2-sSSB-Ct relative to wtSSB-Ct in a complex environment, we carried out a pull-down assay using bacterial cell lysates. […] The washed bead was digested, and tryptic peptides were detected using HPLC-MS.

[2] = target: T1, ExoI (Escherichia coli, UniProt P04995); assay: Isothermal titration calorimetry with ExoI; type: binding, E. coli; details: 20 mM Tris–HCl pH 8.0, 100 mM NaCl
T1 construct: His-tag (cleaved yes); host or cells: E. coli BL21 (DE3) pLysS
Protocol: (§1) Isothermal titration calorimetry (ITC) experiments were performed using a MicroCal VP-ITC titration microcalorimeter. ExoI was dialyzed extensively against the indicated buffer and cleared through centrifugation at 14,000 rpm for 15 min at 4 °C. RecO was subjected to a quick buffer exchange using an Amicon Ultra ultrafiltration device (Sigma). Protein concentrations were determined after the buffer exchange procedure.
(§2) The raw data were integrated using NITPIC [39]. The binding parameters, association equilibrium constant (KA), binding enthalpy (ΔH), and binding entropy (ΔS) were obtained by fitting the titration curves to a model of A + B = C in SEDPHAT [40]. Stoichiometry was fixed to 1:1 and the incompetent fraction was fitted for the protein concentration.

[3] = target: T2, RecO (Escherichia coli, UniProt P0A7H3); assay: Isothermal titration calorimetry with RecO; type: binding; details: 50 mM HEPES pH 7.5, 50 mM NaCl, 25% glycerol; read-out: KD, ITC, RecO
T2 construct: His-tag (TEV site) (N, cleaved yes); made in house; host or cells: E. coli Rosetta cells
Protocol: as §1, §2

[4] = target: E1-sSSB with an N-terminal biotin tag, on Streptavidin DynaBeads (E. coli); assay: affinity purification with mass spectrometry; pull-down: 1 µM biotin peptide on Streptavidin DynaBeads, 30 min with E. coli lysate holding 1 µM recombinant ExoI or RecO; on-pellet tryptic digestion, nanoLC-MS/MS
[5] = target: R2-sSSB with an N-terminal biotin tag, on Streptavidin DynaBeads (E. coli); assay: as above
[6] = target: T3, E. coli Exonuclease I (E. coli, UniProt P04995 1-471); assay: fluorescence polarisation; direct fluorescence anisotropy: ExoI serially diluted from 16 µM, 50 nM fluorescein-labelled peptide, 30 min, 25 °C; 20 mM Tris-HCl pH 8.0, 100 mM NaCl, 1 mM MgCl2, 1 mM 2-mercaptoethanol, 10% glycerol; details: both partners purified
T3 construct: Exonuclease I of E. coli, from plasmid pET14b-E. coli Exonuclease I (Addgene 104552); The His tag was cut off with thrombin only for the purified protein; also called ExoI; Exol; source: E. coli BL21 (DE3) pLysS, purified (Ni-NTA, heparin); also in cell lysate (pull-down)
T3 sequence: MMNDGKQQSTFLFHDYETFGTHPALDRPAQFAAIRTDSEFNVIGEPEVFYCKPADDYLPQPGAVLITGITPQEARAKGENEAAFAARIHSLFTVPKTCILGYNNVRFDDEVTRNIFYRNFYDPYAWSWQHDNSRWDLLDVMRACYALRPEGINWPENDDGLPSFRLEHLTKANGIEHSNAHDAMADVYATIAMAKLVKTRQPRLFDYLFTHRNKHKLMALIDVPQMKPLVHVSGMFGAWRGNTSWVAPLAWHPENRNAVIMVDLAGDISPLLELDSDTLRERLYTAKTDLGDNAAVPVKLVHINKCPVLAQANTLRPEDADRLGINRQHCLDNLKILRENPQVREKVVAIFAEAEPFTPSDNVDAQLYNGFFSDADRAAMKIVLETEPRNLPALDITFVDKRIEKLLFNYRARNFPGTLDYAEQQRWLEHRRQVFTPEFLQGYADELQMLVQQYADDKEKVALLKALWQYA

[7] = target: T4, Escherichia coli RecO (Escherichia coli, UniProt P0A7H3 1-242); assay: fluorescence polarisation; direct fluorescence anisotropy: RecO serially diluted from 7.5 µM, 50 nM fluorescein-labelled peptide, 30 min, 25 °C; 20 mM Tris-HCl pH 8.0, 200 mM NaCl, 1 mM 2-mercaptoethanol, 10% glycerol, 0.01% Triton-X 100; details: both partners purified
T4 construct: RecO of Escherichia coli, synthetic gene in pET28a+ with a TEV site at the 5' end; The His tag was cut off with TEV protease only for the purified protein; source: E. coli Rosetta, purified (Ni-NTA, heparin); also in cell lysate (pull-down); not shown: His tag, N-terminal, cleaved
T4 sequence: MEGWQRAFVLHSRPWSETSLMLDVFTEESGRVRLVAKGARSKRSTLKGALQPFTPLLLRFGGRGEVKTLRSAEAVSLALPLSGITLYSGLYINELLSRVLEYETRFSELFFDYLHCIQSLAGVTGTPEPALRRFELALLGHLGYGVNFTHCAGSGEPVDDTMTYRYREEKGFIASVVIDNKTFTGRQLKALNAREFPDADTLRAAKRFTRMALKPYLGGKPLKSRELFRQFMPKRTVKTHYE

[8] = target: T4, Escherichia coli RecO; assay: fluorescence polarisation; competition fluorescence anisotropy: 0.5 µM RecO, 50 nM F-wtSSB tracer, 0–500 µM unlabeled peptide, 30 min at room temperature, read at 25 °C; 20 mM Tris-HCl pH 8.0, 200 mM NaCl, 1 mM 2-mercaptoethanol, 10% glycerol, 0.01% Triton-X 100; details: both partners purified
[9] = target: T3, E. coli Exonuclease I; assay: fluorescence polarisation; competition fluorescence anisotropy: 0.5 µM ExoI, 50 nM F-wtSSB tracer, 0–500 µM unlabeled peptide, 30 min at room temperature, read at 25 °C; 20 mM Tris-HCl pH 8.0, 100 mM NaCl, 1 mM MgCl2, 1 mM 2-mercaptoethanol, 10% glycerol; details: both partners purified
[10] = target: T4, Escherichia coli RecO; assay: ITC; peptide in the syringe titrated into RecO in the cell; 50 mM HEPES pH 7.5, 50 mM NaCl, 25% glycerol, 1 mM TCEP; model A + B = C, stoichiometry fixed to 1:1, incompetent fraction fitted; details: both partners purified
[11] = target: T3, E. coli Exonuclease I; assay: ITC; peptide in the syringe titrated into ExoI in the cell; 20 mM Tris–HCl pH 8.0, 100 mM NaCl, 1 mM MgCl2, 4% glycerol, 1 mM β-mercaptoethanol; model A + B = C, stoichiometry fixed to 1:1, incompetent fraction fitted; details: both partners purified
[12] = target: T4, Escherichia coli RecO; assay: fluorescence polarisation; competition fluorescence anisotropy: 0.5 µM RecO, 50 nM F-wtSSB tracer, 0–500 µM unlabeled peptide, 30 min at room temperature, read at 25 °C; 20 mM Tris-HCl pH 8.0, 200 mM NaCl, 1 mM 2-mercaptoethanol, 10% glycerol, 0.01% Triton-X 100; details: both partners purified; remark: listed apart in the source
[13] = target: T3, E. coli Exonuclease I; assay: fluorescence polarisation; competition fluorescence anisotropy: 0.5 µM ExoI, 50 nM F-wtSSB tracer, 0–500 µM unlabeled peptide, 30 min at room temperature, read at 25 °C; 20 mM Tris-HCl pH 8.0, 100 mM NaCl, 1 mM MgCl2, 1 mM 2-mercaptoethanol, 10% glycerol; details: both partners purified; remark: listed apart in the source

T1 sequence (P04995 whole entry): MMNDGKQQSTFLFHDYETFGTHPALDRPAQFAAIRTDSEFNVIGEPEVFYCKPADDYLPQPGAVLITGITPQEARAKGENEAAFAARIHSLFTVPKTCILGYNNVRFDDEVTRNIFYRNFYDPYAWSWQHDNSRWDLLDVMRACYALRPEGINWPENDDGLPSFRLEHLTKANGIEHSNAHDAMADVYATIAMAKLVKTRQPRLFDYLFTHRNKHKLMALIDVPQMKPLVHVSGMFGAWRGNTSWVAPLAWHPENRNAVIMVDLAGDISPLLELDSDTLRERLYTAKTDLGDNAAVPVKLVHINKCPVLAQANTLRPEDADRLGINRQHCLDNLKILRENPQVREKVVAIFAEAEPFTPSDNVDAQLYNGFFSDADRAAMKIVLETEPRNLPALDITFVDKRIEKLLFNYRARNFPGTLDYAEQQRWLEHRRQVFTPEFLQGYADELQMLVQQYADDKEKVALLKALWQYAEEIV

Molecule: CC(=O)N[C@@H](CCC(=O)O)C(=O)N[C@@H](Cc1ccc(C(F)(F)F)cc1)C(=O)N[C@@H](CC(=O)O)C(=O)N[C@@H](CC(=O)O)CC(=O)N[C@@H](CCC(=O)O)C(=O)N[C@@H](CC(C)C)C(=O)N1CCCC[C@H]1C(=O)N[C@@H](Cc1ccc(C(F)(F)F)cc1)C(=O)O [E1-sSSB-Ct] (Ac-E[Phe(4-CF3)]D[β3hD]EL[Pip][Phe(4-CF3)]-OH)
- enrichment of ExoI on immobilized peptide compared to wtSSB-Ct [1]: two-fold
- ΔG, ITC, ExoI [2]: -45.56 kJ/mol
- −TΔS, ITC, ExoI [2]: 27 kJ/mol
- N (stoichiometry), ITC, ExoI ([2]; 1 mM MgCl2, 4% glycerol, model A + B = C, stoichiometry fixed 1:1, incompetent fraction fitted): 1.0000
- ΔH, ITC, ExoI ([2]; confidence interval in brackets): −17.35 (−18.34–−16.43) kcal/mol
- Kd ([2]; read-out: KD, ITC, ExoI (in nM), 1:1 stoichiometry): 19 nM

Molecule: CC[C@H](C)[C@H](NC(=O)[C@H](CC(=O)O)NC(=O)[C@H](CC(=O)O)NC(=O)[C@H](CC(=O)O)NC(=O)[C@H](Cc1ccc(Cl)cc1)NC(=O)[C@H](CC(=O)O)NC(C)=O)C(=O)N1CCC[C@H]1C(=O)N[C@@H](Cc1cccc(Cl)c1)C(=O)O [R2-sSSB-Ct] (Ac-D[Phe(4-Cl)]DDDIP[Phe(3-Cl)]-OH)
- Kd [3]: 0.035 µM

B1: E. coli Exonuclease I (enzyme)
chain: T3 sequence
- fold enrichment as compared to wtSSB-Ct [4]: 2 fold

B2: Escherichia coli RecO (natural protein)
chain: T4 sequence
- fold enrichment as compared to wtSSB-Ct [5]: 10 fold

B3: fluorescein-labeled wtSSB-Ct (peptide)
peptide: {5,6‑carboxyfluorescein}-GGDFDDDIPF
notes: two glycines between the 5,6-carboxyfluorescein and the peptide; also called F-SSB-Ct; F-wtSSB-Ct; source: synthetic peptide (solid phase, HPLC purified)
- EC50 [6]: 0.35 ± 0.04 µM
- EC50 [7]: 0.37 ± 0.03 µM

B4: F-Glu5 (fluorescein-labelled single mutant) (peptide)
peptide: {5,6‑carboxyfluorescein}-GGDFDDEIPF
notes: two glycines between the 5,6-carboxyfluorescein and the peptide; E. coli SSB-Ct, residues 171-178; numbers count on: the octapeptide (position 1 = SSB residue 171); One of Compounds 54-62 of the Supplementary Material; also called F-mSSB Glu5; source: synthetic peptide
- EC50 [6]: 0.11 ± 0.01 µM
- EC50 [7]: 0.2 ± 0.02 µM

Molecule: {5,6‑carboxyfluorescein}-DFDDD[Nle]PF [F-nLe6 (fluorescein-labelled single mutant)]
- EC50 [6]: 0.2 ± 0.01 µM
- EC50 [7]: 0.2 ± 0.01 µM

B5: wtSSB-Ct, octapeptide identical to the SSB C-terminal acidic tip (residues 171-178 of SSB) (peptide)
peptide: Ac-DFDDDIPF
notes: also called wild-type SSB-Ct; source: synthetic peptide (solid phase, HPLC purified)
- IC50 [8]: 4.66 ± 0.24 µM
- IC50 [9]: 4.54 ± 0.34 µM
- Kd [10]: 0.14 µM
- dH [10]: -31.5 kJ/mol
- stoichiometry N [10]: 1
- Kd [11]: 3.07 µM
- dH [11]: -44.6 kJ/mol
- stoichiometry N [11]: 0.959

B6: mSSB-Ct Leu6 (unlabelled single mutant) (peptide)
peptide: Ac-DFDDDLPF
notes: E. coli SSB C-terminal tip (SSB-Ct), residues 171-178; numbers count on: the octapeptide (position 1 = SSB residue 171); also called isoleucine to leucine at position 6; source: synthetic peptide
- IC50 [12]: 3.22 µM

Molecule: Ac-DFDDD[Nle]PF [mSSB-Ct nLe6 (unlabelled single mutant)]
- IC50 [12]: 2.55 µM

B7: E1-sSSB-Ct (Glu–4-CF3-Phe–Asp–β^3-Asp–Glu–Leu–Pip–4-CF3-Phe) (peptide)
chain: Ac-E[Phe(4-CF3)]D[β3hD]EL[Pip′][Phe(4-CF3)]
modifications: not fully specified; printed as E1-sSSB-Ct (Glu–4-CF3-Phe–Asp–β^3-Asp–Glu–Leu–Pip–4-CF3-Phe)
- IC50 [13]: 0.17 µM
- Kd [11]: 0.02 µM
- dH [11]: -72.6 kJ/mol
- stoichiometry N [11]: 1

B8: R2-sSSB-Ct (Asp–4Cl-Phe–Asp–Asp–Asp–Ile–Pro–3Cl-Phe) (peptide)
peptide: Ac-D[Phe(4-Cl)]DDDIP[Phe(3-Cl)]
notes: SSB-Ct of E. coli SSB (residues 171-178), printed in three-letter code; F2 stands for 4Cl-Phe, F8 for 3Cl-Phe; numbers count on: the octapeptide (position 1 = SSB residue 171); source: synthetic peptide
- Kd [10]: 0.04 µM
- dH [10]: -98.2 kJ/mol
- stoichiometry N [10]: 1
- IC50 [12]: 0.59 µM
